Laboratory results taken from PMC3203581.
Read-outs that look alike come from different tables or passages of the source.

T1: tvMyb2 40-156 (Trichomonas vaginalis, UniProt Q58HP3 40-156)
T1 sequence: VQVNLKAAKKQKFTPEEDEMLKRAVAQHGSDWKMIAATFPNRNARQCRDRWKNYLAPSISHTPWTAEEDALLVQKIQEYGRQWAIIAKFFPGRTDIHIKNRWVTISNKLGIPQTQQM

B1: MRE-2-13 (dsDNA)
DNA 1: CTGTATCGTCTTG
DNA 2: CAAGACGATACAG
B2: MRE-1-12 (dsDNA)
DNA 1: ATAACGATATTT
DNA 2: AAATATCGTTAT

Experiments:
[1] = molecular target: T1, tvMyb2 40-156; assay: X-ray crystallography
[2] = molecular target: T1, tvMyb2 40-156; assay: X-ray crystallography; remark: listed apart in the source

Binder | binding result [1] | binding result [2]
B1 | binds | 
B2 |  | binds
